{"source": "patent US20240109955A1", "about": "(published 2024)", "binders": {"B1": {"name": "A19-61.1 (antibody, V domains shown)", "VH": "QVQLVESGGGVVQPGRSLRLSCAASGFTFSSYAFHWVRQAPGKGLEWVAVISYDGSNQYYADSVKGRFTISRDNSKNTLYLQMNSLRADDTAVYYCARDLAIAVAGTWHYYNGMDVWGQGTTVTVSS", "VL": "DIQMTQSPSSVSASVGDRVIITCRASQGISSWLAWYQQKPGKAPKVLIYDASSLQSGVPSRFSGSGYGTDFTLTISSLQPEDSATYYCQQAKSFPITFGQGTRLEIK"}}, "target": "SARS-CoV-2 spike protein, original Wuhan strain (WT) (SARS-CoV-2, UniProt P0DTC2 14-1273)", "test": "cell-based or functional assay"}
{"binder": "B1", "values": [{"measurement": "IC50, pseudovirus neutralization", "value": 0.172, "unit": "nM"}]}
